# Patent US20240124585A1 (SUTRO BIOPHARMA, published 2024)
# Where a chain is given by its changes, count along the chain named. Names and notes keep the numbering of the source.
# T1: cynomolgus CD3 epsilon (cynomolgus monkey, UniProt Q95LI5 22-117, limits assumed)
# T1 construct: Recombinant protein; also called cyno CD3E
# T1 sequence: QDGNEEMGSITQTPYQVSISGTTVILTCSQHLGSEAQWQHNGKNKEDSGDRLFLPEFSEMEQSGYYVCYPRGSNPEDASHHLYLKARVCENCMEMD
# B1: 2037-B10_Hc-F29D (antibody, human IgG1, lambda, V domains shown)
# VH: EVQLVESGGGLVKPGGSLRLSCAASGFTDNKYAMNWVRQAPGKGLEWVARIRTKYNNYATYYADSVKDRFTISRDDSKNTAYLQMNSLKTEDTAVYYCVRHGNFGNSYISYWAYWGQGTPVTVSS
# VL: QTVVTQEPSLTVSPGGTVTLTCGSSTGAVTSGYYPNWLQQKPGQAPRGLIGGTKFLAPGTPARFSGSLLGGKAALTLSGVQPEDEAEYYCALWYSNRWVFGGGTQLTVTG
# notes: human IgG1, lambda; also called SRP 2037 F29D; 2037-B10_VH-F29D
# B2: 2037-B10_Hc-Y61D (antibody, human IgG1, lambda, V domains shown)
# VH: B1 VH with D29F, Y61D
# VL: B1 VL
# notes: human IgG1, lambda; also called SRP 2037 Y61D; 2037-B10_VH-Y61D
# B3: 2037-B10_Hc-S107D (antibody, human IgG1, lambda, V domains shown)
# VH: B1 VH with D29F, S107D
# VL: B1 VL
# notes: human IgG1, lambda; also called SRP 2037 S107D; 2037-B10_VH-S107D
# B4: 2037-B10_Hc-Y55D (antibody, human IgG1, lambda, V domains shown)
# VH: B1 VH with D29F, Y55D
# VL: B1 VL
# notes: human IgG1, lambda; also called SRP 2037 Y55D; 2037-B10_VH-Y55D
# B5: 2037-B10_Hc-F104D (antibody, human IgG1, lambda, V domains shown)
# VH: B1 VH with D29F, F104D
# VL: B1 VL
# notes: human IgG1, lambda; also called SRP 2037 F104D; 2037-B10_VH-F104D
# B6: 2037-B10-Lc1 (antibody)
# heavy: not shown
# light: DIQMTQSPSSLSASVGDRVTITCGSSTGAVTSGYYPNWYQQKPGKAPKLLIGGTKFLAPGVPSRFSGSGSGTDFTLTISSLQPEDFATYYCALWYSNRWVFGGGTKVEIKRTVAAPSVFIFPPSDEQLKSGTASVVCLLNNFYPREAKVQWKVDNALQSGNSQESVTEQDSKDSTYSLSSTLTLSKADYEKHKVYACEVTHQGLSSPVTKSFNRGEC
# notes: human IgG1, kappa; also called Kappa Lc1
# B7: 2037-B10-Lc4 (antibody)
# heavy: not shown
# light: B6 light with G69L, T72G, D73K, F74A
# notes: human IgG1, kappa; also called Kappa Lc4
# B8: 2037-B10-Lc3 (antibody)
# heavy: not shown
# light: B6 light with Y39L, K45Q, K48R, L49G
# notes: human IgG1, kappa; also called Kappa Lc3
# B9: 2037-B10-Lc8 (antibody)
# heavy: not shown
# light: DTQVTQSPSLSASVGDRVTITCGSSTGAVTSGYYPNWLQQKPGQAPRGLIGGTKFLAPGVPSRFSGSLSGGKATLTISSLQPEDFATYYCALWYSNRWVFGGGTKVEIKRTVAAPSVFIFPPSDEQLKSGTASVVCLLNNFYPREAKVQWKVDNALQSGNSQESVTEQDSKDSTYSLSSTLTLSKADYEKHKVYACEVTHQGLSSPVTKSFNRGEC
# notes: human IgG1, kappa; also called Kappa Lc8
# B10: 2037-B10-Lc7 (antibody)
# heavy: not shown
# light: B9 light with L38Y, Q44K, R47K, G48L
# notes: human IgG1, kappa; also called Kappa Lc7
# B11: 2037-B10-Lc2 (antibody)
# heavy: not shown
# light: B9 light with L38Y, Q44K, R47K, G48L, L68G, G71T, K72D, A73F
# notes: human IgG1, kappa; also called Kappa Lc2
# B12: SRP 2037-B10 S107D/LC6 (antibody, human IgG1, kappa, V domains shown)
# VH: B1 VH with D29F, S107D
# VL: DIQMTQSPSSLSASVGDRVTITCGSSTGAVTSGYYPNWLQQKPGQAPRGLIGGTKFLAPGVPSRFSGSLSGGKATLTISSLQPEDFATYYCALWYSNRWVFGGGTKVEIKR
# notes: human IgG1, kappa; also called 2037-B10 IgG S107D Lc6
# B13: SRP 2037-B10 F104D/LC6 (antibody, human IgG1, kappa, V domains shown)
# VH: B1 VH with D29F, F104D
# VL: B12 VL
# notes: human IgG1, kappa
# B14: SRP 2037-B10 Y55D/LC6 (antibody, human IgG1, kappa, V domains shown)
# VH: B1 VH with D29F, Y55D
# VL: B12 VL
# notes: human IgG1, kappa
# B15: SRP 2037-B10 F29D/LC6 (antibody, human IgG1, kappa, V domains shown)
# VH: B1 VH
# VL: B12 VL
# notes: human IgG1, kappa
# B16: SRP 2037-B10 Y61D/LC6 (antibody, human IgG1, kappa, V domains shown)
# VH: B1 VH with D29F, Y61D
# VL: B12 VL
# notes: human IgG1, kappa
# Biological target: T2, human CD3 on T-cell lines (CD3-expressing Jurkat cells; HUT78 cells) (human, UniProt P07766 23-207)
# T2 construct: On cells it stands in the CD3/TCR complex
# Experiment: flow cytometry, HUT78 cells
# T2 sequence (P07766 23-207 limits assumed): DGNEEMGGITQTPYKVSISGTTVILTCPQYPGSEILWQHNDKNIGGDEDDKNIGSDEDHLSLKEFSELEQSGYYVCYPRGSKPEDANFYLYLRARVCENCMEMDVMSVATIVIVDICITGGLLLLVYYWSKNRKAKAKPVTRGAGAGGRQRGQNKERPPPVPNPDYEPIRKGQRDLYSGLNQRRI
Binder,Bmax (MFI),Kd
B1,1080 MFI,1.87 nM
B2,689 MFI,0.32 nM
B3,1060 MFI,1.72 nM
B4,544 MFI,0.27 nM
B5,617 MFI,1.72 nM

# Biological target: T2, human CD3 on T-cell lines …
# Experiment: flow cytometry, HUT78 cells
# Remark: another data set of the same source
Binder,Bmax (MFI),Kd
B6,514 MFI,222 nM
B7,130 MFI,30.4 nM
B8,1040 MFI,62.6 nM
B9,1250 MFI,0.3 nM
B10,737 MFI,338 nM
B11,63 MFI,24 nM

# Biological target: T2, human CD3 on T-cell lines …
# Experiment: flow cytometry, HUT78 cells
# Remark: another data set of the same source
Binder,HUT78 Bmax,Kd
B12,1550,17.3 nM
B13,760,24.6 nM
B14,1250,6.35 nM
B15,1040,3.72 nM
B16,737,6.61 nM
B2,804,18.8 nM
B3,1630,15.6 nM
B4,1270,9.36 nM
B5,1200,23 nM

# Biological target: T3, human CD3 epsilon (Acro Cat #CDE-H5223) (human, UniProt P07766 23-126)
# T3 construct: Bought recombinant protein; also called rhCD3E
# Experiment: SPR (Biacore), antibody captured, human CD3 epsilon analyte
# Experimental: (§1) Anti-Fab or anti-Fc polyclonal antibodies were immobilized onto a CM5 chip (GE Life Sciences) using amine coupling chemistry (from Amine Coupling Kit, GE Life Sciences). The immobilization steps were carried out at a flow rate of 25 μl/min in 1×HBS-EP+ buffer (GE Life Sciences; 10× Stock diluted before use). The sensor surfaces were activated for 7 min with a mixture of NHS (0.05 M) and EDC (0.2 M). The Anti-Fab or Anti-Fc antibodies were injected over all 4 flow cells at a concentration of 25 μg/mL in 10 mM sodium acetate, pH 4.5, for 7 min. Ethanolamine (1 M, pH 8.5) was injected for 7 min to block any remaining activated groups.
# (§2) Off-rate and kinetic binding experiments were performed at 25° C. using 1×HBS-EP+ buffer. Test and control antibodies were injected over the anti-Fab or anti-Fc surface at concentrations of 5-10 μg/mL for 12 seconds at a flow rate of 10 μL/min on flow cells 2, 3 and 4, followed by a buffer wash for 30 seconds at the same flow rate. […] After capturing ligand (antibody) on the anti-Fc or anti-Fab surface, the analyte (human CD3 epsilon, Acro Cat #CDE-H5223) was bound for 180 seconds, followed by a 600 second dissociation phase at a flow rate of 50 μL/min. Between each ligand capture and analyte binding cycle, regeneration was carried out using two injections of 10 mM Glycine pH 2.0 for 30 seconds at 30 μL/min, followed by a 30 second buffer wash step.
# (§3) The data was fit with the Biacore T200 Evaluation software, using a 1-1 Langmuir binding model. KD (affinity, nM) was determined as a ratio of the kinetic rate constants calculated from the fits of the association and dissociation phases.
# T3 sequence (P07766 23-126 limits assumed): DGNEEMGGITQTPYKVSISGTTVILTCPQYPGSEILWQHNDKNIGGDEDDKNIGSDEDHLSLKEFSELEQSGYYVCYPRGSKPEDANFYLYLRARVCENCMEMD
Binder,Kd,koff,kon
B1,2.36 nM,0.000491 s⁻¹,208000 M⁻¹ s⁻¹
B2,1.84 nM,0.000591 s⁻¹,321000 M⁻¹ s⁻¹
B3,1.47 nM,0.000215 s⁻¹,146000 M⁻¹ s⁻¹
B4,1.31 nM,0.000372 s⁻¹,284000 M⁻¹ s⁻¹
B5,7.82 nM,0.000631 s⁻¹,80700 M⁻¹ s⁻¹

# Biological target: T3, human CD3 epsilon (Acro Cat #CDE-H5223)
# Experiment: as above
# Remark: another data set of the same source
# Experimental: as §1, §2, §3
Binder,binding result,Kd,koff,kon
B6,no binding,–,–,–
B7,no binding,–,–,–
B8,–,7.15 nM,0.000393 s⁻¹,55000 M⁻¹ s⁻¹
B9,–,0.493 nM,0.000267 s⁻¹,541000 M⁻¹ s⁻¹
B10,no binding,–,–,–
B11,no binding,–,–,–

# Biological target: T3, human CD3 epsilon (Acro Cat #CDE-H5223)
# Experiment: as above
# Remark: another data set of the same source
# Experimental: as §1, §2, §3
Binder,Kd,koff,kon
B12,8.62 nM,0.000459 s⁻¹,53200 M⁻¹ s⁻¹
B13,3.7 nM,0.000374 s⁻¹,101000 M⁻¹ s⁻¹
B14,3.89 nM,0.000392 s⁻¹,101000 M⁻¹ s⁻¹
B15,18.5 nM,0.000749 s⁻¹,40500 M⁻¹ s⁻¹
B16,3.63 nM,0.000369 s⁻¹,102000 M⁻¹ s⁻¹
B1,11 nM,0.000453 s⁻¹,41200 M⁻¹ s⁻¹
B2,3.42 nM,0.000379 s⁻¹,111000 M⁻¹ s⁻¹
B3,5.06 nM,0.00041 s⁻¹,81000 M⁻¹ s⁻¹
B4,2.45 nM,0.000277 s⁻¹,113000 M⁻¹ s⁻¹
B5,3.38 nM,0.000241 s⁻¹,71200 M⁻¹ s⁻¹

# Biological target: T1, cynomolgus CD3 epsilon
# Experiment: SPR (Biacore), antibody captured, cynomolgus CD3 epsilon analyte
Binder,binding result,Kd,koff,kon
B6,no binding,–,–,–
B7,no binding,–,–,–
B8,–,13.6 nM,0.00069 s⁻¹,50600 M⁻¹ s⁻¹
B9,–,0.338 nM,0.000311 s⁻¹,920000 M⁻¹ s⁻¹
B10,no binding,–,–,–
B11,no binding,–,–,–

# Biological target: T1, cynomolgus CD3 epsilon
# Experiment: as above
# Remark: another data set of the same source
Binder,Kd,koff,kon
B12,3.41 nM,0.000558 s⁻¹,164000 M⁻¹ s⁻¹
B13,14.9 nM,0.00165 s⁻¹,111000 M⁻¹ s⁻¹
B14,2.09 nM,0.000945 s⁻¹,451000 M⁻¹ s⁻¹
B15,5.87 nM,0.00121 s⁻¹,206000 M⁻¹ s⁻¹
B16,3.99 nM,0.00154 s⁻¹,387000 M⁻¹ s⁻¹
B1,2.69 nM,0.000573 s⁻¹,213000 M⁻¹ s⁻¹
B2,1.73 nM,0.00123 s⁻¹,709000 M⁻¹ s⁻¹
B3,1.64 nM,0.00034 s⁻¹,207000 M⁻¹ s⁻¹
B4,1 nM,0.00058 s⁻¹,579000 M⁻¹ s⁻¹
B5,6.45 nM,0.00107 s⁻¹,166000 M⁻¹ s⁻¹
